The record followed here is patent US20100129344.

In data set [1] the target is T1, IGFBP-6 (human, GroPep), P24592.
T1 chain: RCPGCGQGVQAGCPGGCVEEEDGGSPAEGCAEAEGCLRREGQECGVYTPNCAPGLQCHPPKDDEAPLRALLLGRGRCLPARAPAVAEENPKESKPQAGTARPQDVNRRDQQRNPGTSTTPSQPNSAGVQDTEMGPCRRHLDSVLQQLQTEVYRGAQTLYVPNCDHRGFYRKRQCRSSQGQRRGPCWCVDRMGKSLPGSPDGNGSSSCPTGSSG

Data set [2] has as its target T2, IGFBP-4 (human, GroPep), P22692.
T2 chain: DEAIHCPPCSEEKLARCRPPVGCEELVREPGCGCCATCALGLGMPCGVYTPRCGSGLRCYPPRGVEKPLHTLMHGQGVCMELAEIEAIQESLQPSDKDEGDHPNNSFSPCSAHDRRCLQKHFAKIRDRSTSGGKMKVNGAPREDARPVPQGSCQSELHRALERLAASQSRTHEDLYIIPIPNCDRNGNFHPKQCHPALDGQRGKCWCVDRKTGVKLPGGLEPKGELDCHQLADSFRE

The target in data set [3] is Glycosylated IGFBP-3 (human, GroPep), P17936.
Glycosylated IGFBP-3 (human, GroPep), P17936, sequence (P17936 28-291): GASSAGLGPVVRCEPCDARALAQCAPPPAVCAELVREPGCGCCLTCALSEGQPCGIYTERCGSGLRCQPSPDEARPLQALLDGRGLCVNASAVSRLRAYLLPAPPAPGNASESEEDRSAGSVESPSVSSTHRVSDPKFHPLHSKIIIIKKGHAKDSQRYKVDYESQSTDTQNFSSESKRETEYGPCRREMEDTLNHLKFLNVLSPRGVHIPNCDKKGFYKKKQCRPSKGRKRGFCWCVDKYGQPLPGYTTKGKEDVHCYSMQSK
The target of data set [4] is T3, Recombinant phosphorylated IGFBP-1 (human), intact, P08833.
T3 chain: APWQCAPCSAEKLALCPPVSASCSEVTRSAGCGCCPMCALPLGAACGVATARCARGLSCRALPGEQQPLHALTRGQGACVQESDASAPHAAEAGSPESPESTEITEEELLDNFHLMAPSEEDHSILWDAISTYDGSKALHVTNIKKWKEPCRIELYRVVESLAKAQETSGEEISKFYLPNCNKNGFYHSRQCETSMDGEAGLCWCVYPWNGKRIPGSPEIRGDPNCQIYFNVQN

Data set [5] deals with IGFBP-5 (human, Upstate), P24593.
IGFBP-5 (human, Upstate), P24593, sequence (P24593 21-272): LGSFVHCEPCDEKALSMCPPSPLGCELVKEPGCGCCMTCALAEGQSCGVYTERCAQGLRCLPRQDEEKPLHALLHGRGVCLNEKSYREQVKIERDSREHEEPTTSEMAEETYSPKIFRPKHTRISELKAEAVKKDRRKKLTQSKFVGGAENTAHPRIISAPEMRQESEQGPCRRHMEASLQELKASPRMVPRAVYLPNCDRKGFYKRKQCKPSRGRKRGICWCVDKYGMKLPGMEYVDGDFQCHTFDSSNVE
The target in data set [6] is T4, Recombinant non-phosphorylated IGFBP-1 (human), P08833.
T4 chain: T3 chain

The target of data set [7] is T5, IGFBP-2 (human, GroPep), P18065.
T5 chain: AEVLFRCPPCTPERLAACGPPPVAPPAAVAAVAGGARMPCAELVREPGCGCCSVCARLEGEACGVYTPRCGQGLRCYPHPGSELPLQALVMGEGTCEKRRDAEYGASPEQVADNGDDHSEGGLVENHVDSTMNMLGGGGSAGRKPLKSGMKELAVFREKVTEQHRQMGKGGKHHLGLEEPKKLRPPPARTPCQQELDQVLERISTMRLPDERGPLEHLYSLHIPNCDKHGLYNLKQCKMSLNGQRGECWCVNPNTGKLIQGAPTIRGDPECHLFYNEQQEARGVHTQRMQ

Data set [8] concerns the target T6, Dephosphorylated preparation of HepG2-purified IGFBP-1, P08833.
T6 chain: T3 chain

For data set [9], the target named is T7, Highly phosphorylated HepG2-purified IGFBP-1, P08833.
T7 chain: T3 chain

B1: Azurocidin, native, partially purified from human urine by heparin affinity chromatography (protein)
chain: IVGGRKARPRQFPFLASIQNQGRHFCGGALIHARFVMTAASCFQSQNPGVSTVVLGAYDLRRRERQSRQTFSISSMSENGYDPQQNLNDLMLLQLDREANLTSSVTILPLPLQNATVEAGTRCQVAGWGSQRSGGRLSRFPRFVNVTVTPEDQCRPNNVCTGVLTRRGGICNGDGGTPLVCEGLAHGVASFSLGPCGRGPDFFTRVALFRDWIDGVLNNPGP
Take B1: the “cleavage of IGFBP by urine, 2 h at 37 C, neutral conditions” value (“cleavage of IGFBP by urine, 2 h at 37 C” for short) in data set [1] is 2 µl had minimal effect on ... not shown here, IGFBP-4 and IGFBP-6. Further, in [2], the “cleavage of IGFBP by urine, 2 h at 37 C” value was 2 µl had minimal effect on ... not shown here, IGFBP-4. The “cleavage of IGFBP by urine, 2 h at 37 C” value in data set [3] was 2 µl had minimal effect on ... glycosylated (g) IGFBP-3. In data set [4], the “proteolysis of IGFBP-1 (SDS-PAGE, silver staining)” value was “Azurocidin-dependent proteolysis of phosphorylated IGFBP-1 was seen within minutes, using a protease:substrate molar ratio of 1:3,500”; the “time course of degradation by 0.5 µl urine at 37 C (radioiodinated substrate, SDS-PAGE, autoradiography)” value was “no difference was found in the rate of degradation of each isoform, with fragments visible within 3 min, and substantial degradation by 2 h”. For the same protein, in data set [5], the “cleavage of IGFBP by urine, 2 h at 37 C” value is reported as 2 µl had minimal effect on ... IGFBP-5. In addition, in [6], the “cleavage of radioiodinated recombinant npIGFBP-1 by 0.25 µl heparin eluate at pH 2 and 7 (2 h, 37 C; SDS-PAGE, autoradiography)” value was “eluate at pH 2: strong 30K band, no fragments; eluate at pH 7: faint 30K band and a strong band at 14.3K”; the “cleavage of radioiodinated recombinant npIGFBP-1 by 0.25 µl heparin eluate at pH 2 to 8 (2 h, 37 C; SDS-PAGE, autoradiography)” value is “the 30K band is strong at pH 2 and 4, a little weaker at pH 5, thin at pH 6 and absent at pH 7, 7.5 and 8; bands at 14.3K appear at pH 5 and 6 and are strongest at pH 7 and 7.5”; the “cleavage of radioiodinated recombinant npIGFBP-1 by 0.5 µl urine after preincubation with 2, 5 or 10 ng IGF-I” value was “at 2, 5 and 10 ng IGF-I the upper band is kept, weaker than in the untreated lane (*), and the lower band is only faint; no clear change from 2 to 10 ng”; the “cleavage of radioiodinated recombinant npIGFBP-1 by 0.5 µl urine after preincubation with 2, 5 or 10 ng IGF-II” value was “at 2, 5 and 10 ng IGF-II the upper band is kept, weaker than in the untreated lane (*), and the lower band is only faint; no clear change from 2 to 10 ng”. In data set [6], the “cleavage of radioiodinated recombinant npIGFBP-1 by 0.5 µl urine after preincubation with 2, 5 or 10 ng insulin” value was “at all three amounts of insulin the upper band is as faint as with urine alone and the lower band is seen”; the “cleavage of radioiodinated recombinant npIGFBP-1 by 0.5 µl urine alone at pH 7 (2 h, 37 C; SDS-PAGE, autoradiography)” value is “lane U: the upper band of the untreated lane (*) is nearly gone and a strong lower band appears”; the “cleavage of radioiodinated recombinant npIGFBP-1 by 0.5 µl urine at pH 2 to 8 (2 h, 37 C; SDS-PAGE, autoradiography); the neutral range is meant” value is “the 30K band is strong at pH 6, weaker at pH 5, faint at pH 7 and absent at pH 7.5 and 8; strong fragment bands at 14.3K at pH 7, 7.5 and 8 (at pH 2 and 4 the 30K band is also absent, with only faint signal near 14.3K)”; the “time course of degradation by 0.5 µl urine at 37 C (radioiodinated substrate, SDS-PAGE, autoradiography)” value is “no difference was found in the rate of degradation of each isoform, with fragments visible within 3 min, and substantial degradation by 2 h”. For the same protein, the “cleavage of IGFBP by urine, 2 h at 37 C” value in [7] is 2 µl had minimal effect on IGFBP-2. For the same protein, in [8], the “cleavage of IGFBP-1 by urine, 2 h at 37 C, neutral conditions (affinity labelling with radioiodinated IGF-I, SDS-PAGE, autoradiography)” value was “One µl of urine cleaved more than 50% of each IGFBP-1 isoform”. Besides, in data set [9], the “cleavage of IGFBP-1 by urine, 2 h at 37 C, neutral conditions (affinity labelling with radioiodinated IGF-I, SDS-PAGE, autoradiography)” value is “One µl of urine cleaved more than 50% of each IGFBP-1 isoform”.

B2: Recombinant azurocidin 27-250, purified from murine myeloma cells (R&D Systems) (protein)
chain: IVGGRKARPRQFPFLASIQNQGRHFCGGALIHARFVMTAASCFQSQNPGVSTVVLGAYDLRRRERQSRQTFSISSMSENGYDPQQNLNDLMLLQLDREANLTSSVTILPLPLQNATVEAGTRCQVAGWGSQRSGGRLSRFPRFVNVTVTPEDQCRPNNVCTGVLTRRGGICNGDGGTPLVCEGLAHGVASFSLGPCGRGPDFFTRVALFRDWIDGVLNNPGPGP
As for B2, in data set [4], the “proteolysis of IGFBP-1” value was “Recombinant human azurocidin^27-250, produced in mouse myeloma cells, had no effect on IGFBP-1 (data not shown)”.
